One molecule from patent US20240287163A1 (Chugai, published 2024) can be followed below.

Assay in all cases: SPR (Biacore T200), antibody captured on protein L, FcγR injected
(In general: Surface plasmon resonance follows binding to a sensor surface in real time, without labels.)

In test [1] the target is T1, cynomolgus Fc gamma receptor Ia (cynomolgus monkey, UniProt P12314 16-288 (human entry)).
T1 construct: also called cyFcγRIa
T1 chain: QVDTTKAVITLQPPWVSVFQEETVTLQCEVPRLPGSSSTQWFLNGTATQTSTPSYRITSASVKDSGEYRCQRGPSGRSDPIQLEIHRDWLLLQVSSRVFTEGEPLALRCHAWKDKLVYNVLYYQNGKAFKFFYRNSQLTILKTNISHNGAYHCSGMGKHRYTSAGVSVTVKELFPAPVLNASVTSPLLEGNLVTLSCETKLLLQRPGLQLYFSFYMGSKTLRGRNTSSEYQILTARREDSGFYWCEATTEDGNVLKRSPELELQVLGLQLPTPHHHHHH
The procedure: (§1) The binding property of each sample to FcγRs at pH7.4 was determined at 25° C. using BIACORE® T200 instrument (Cytiva). First, protein L (BioVision) was immobilized onto all of the flow cells of a CM4 sensor chip using Amine Coupling Kit, type2 (Cytiva). 50 mM phosphate buffer (pH7.4) containing 150 mM NaCl, 0.05% Tween® 20 was used as the running buffer, and antibodies with the binding response of which were prepared to 500 RU or 2000 RU were captured on the sensor surface. Human and monkey FcγRs diluted with the running buffer were injected thereto and the amount bound with the antibodies was measured. hFcγRIa and cyFcγRIa were diluted to 8 nM, and the rest were diluted to 1000 nM. The sensor surface was regenerated every cycle, using 10 mM glycine hydrochloride solution, pH1.5 (prepared in-house).

Test [2] has as its target T2, cynomolgus Fc gamma receptor IIa1 (cynomolgus monkey).
T2 construct: also called cyFcγRIIa1
T2 chain: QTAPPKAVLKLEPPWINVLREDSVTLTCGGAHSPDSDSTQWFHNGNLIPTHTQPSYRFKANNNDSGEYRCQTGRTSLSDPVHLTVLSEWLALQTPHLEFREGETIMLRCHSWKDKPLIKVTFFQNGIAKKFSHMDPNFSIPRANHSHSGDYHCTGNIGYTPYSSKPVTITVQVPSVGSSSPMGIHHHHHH
The procedure: as §1

For test [3], the target named is T3, cynomolgus Fc gamma receptor IIa2 (cynomolgus monkey).
T3 construct: also called cyFcγRIIa2
T3 chain: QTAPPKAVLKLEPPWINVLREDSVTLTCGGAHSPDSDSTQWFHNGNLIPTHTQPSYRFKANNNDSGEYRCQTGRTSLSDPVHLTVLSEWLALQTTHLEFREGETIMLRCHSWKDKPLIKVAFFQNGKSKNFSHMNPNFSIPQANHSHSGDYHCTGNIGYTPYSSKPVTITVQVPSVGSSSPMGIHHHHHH
Here is the method:
as §1

The target of test [4] is T4, cynomolgus Fc gamma receptor IIa3 (cynomolgus monkey).
T4 construct: also called cyFcγRIIa3
T4 chain: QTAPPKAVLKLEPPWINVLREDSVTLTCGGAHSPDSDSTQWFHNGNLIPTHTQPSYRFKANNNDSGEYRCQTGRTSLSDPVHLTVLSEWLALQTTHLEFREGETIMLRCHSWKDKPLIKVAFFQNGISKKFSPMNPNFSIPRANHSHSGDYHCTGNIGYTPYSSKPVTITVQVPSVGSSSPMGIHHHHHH
Here is the method:
as §1

Test [5] has as its target T5, cynomolgus Fc gamma receptor IIb (cynomolgus monkey).
T5 construct: also called cyFcγRIIb
T5 chain: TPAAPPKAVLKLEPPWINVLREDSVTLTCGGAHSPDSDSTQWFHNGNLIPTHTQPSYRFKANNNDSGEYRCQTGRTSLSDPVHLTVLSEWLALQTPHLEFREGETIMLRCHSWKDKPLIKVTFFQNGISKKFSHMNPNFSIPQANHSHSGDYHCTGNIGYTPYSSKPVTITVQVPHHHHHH
The procedure:
as §1

The target of test [6] is T6, cynomolgus Fc gamma receptor IIIa (R) (cynomolgus monkey, UniProt Q8SPW2 17-208).
T6 construct: also called cyFcγRIIIa(R)
Here is the method: as §1

Test [7] concerns the target T7, cynomolgus Fc gamma receptor IIIa (S) (cynomolgus monkey, UniProt Q8SPW2 21-206 at identity 1.00)).
T7 construct: also called cyFcγRIIIa(S)
T7 chain: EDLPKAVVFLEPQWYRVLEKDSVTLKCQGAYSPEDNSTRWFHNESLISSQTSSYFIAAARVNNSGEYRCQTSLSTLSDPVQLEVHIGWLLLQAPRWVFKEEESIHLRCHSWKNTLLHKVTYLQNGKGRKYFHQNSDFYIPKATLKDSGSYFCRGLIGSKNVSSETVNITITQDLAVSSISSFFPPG
The procedure:
as §1

T6 sequence (Q8SPW2 other isoform, or with tags, fused parts or gaps): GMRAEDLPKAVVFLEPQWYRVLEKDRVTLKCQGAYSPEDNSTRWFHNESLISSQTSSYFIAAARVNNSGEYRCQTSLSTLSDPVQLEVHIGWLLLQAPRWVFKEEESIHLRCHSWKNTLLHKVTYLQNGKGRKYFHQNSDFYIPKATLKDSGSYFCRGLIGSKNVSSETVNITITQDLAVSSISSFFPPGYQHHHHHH

B1: COS0637pHv2-FcgSil (antibody)
heavy: QVQLVESGGGVVQPGRSLRLSCAASGFRFSAYAMNWIRQPPGKGLEWIGLIYGKGSTFYASWAKERVTISVDTSKNQFSLKLSSVTAADTAVYYCARGRSVNYNSDFHLWGQGTLVTVSSASTKGPSVFPLAPSSKSTSGGTAALGCLVKDYFPEPVTVSWNSGALTSGVHTFPAVLQSSGLYSLSSVVTVPSSSLGTQTYICNVNHKPSNTKVDKRVEPKSCDKTHTCPPCPAPELRRGPSVFLFPPKPKDTLMISRTPEVTCVVVDVSDEDPEVKFNWYVDGVEVHNAKTKPREELYNSTYRVVSVLTVLHRDWLNGKEYKCKVSNTALPKPIEKTISKAKGQRREPQVYTLPPSREEMTKNQVSLTCLVKGFYPSDIAVEWESNGQPENNYKTTPPVLDSDGSFFLYSKLTVDKSRWQQGNVFSCSVLHEALHAHTTRKELSLSP
light: DIQMTQSPSSLSASVGDRVTITCQASQSLHDKKNLAWYQQKPGQPPKLLIYGASTLESGVPSRFSGSGSGTDFTLTISSLQPEDFATYYCQGEFSCSSADCNTFGQGTKVEIKRTVAAPSVFIFPPSDEQLKSGTASVVCLLNNFYPREAKVQWKVDNALQSGNSQESVTEQDSKDSTYSLSSTLTLSKADYEKHKVYACEVTHQGLSSPVTKSFNRGEC
notes: FcγR-silenced constant region FcgSil
Regarding B1, the binding result is given as “no binding (tested: 8 nM)” in test [1]; “no binding (tested: 1000 nM)” in test [2]; “no binding (tested: 1000 nM)” in test [3]; “no binding (tested: 1000 nM)” in test [4]; “no binding (tested: 1000 nM)” in test [5]; “no binding (tested: 1000 nM)” in test [6]. In test [7], the binding result is listed as “no binding (tested: 1000 nM)”.
